# Legend:
# [1] = tested on: P. aeruginosa PAO1p cells; assay: Antibacterial activity, 1 hour incubation with 100 μg/ml protein, residual colony count; settings: for Reduction [%] / antibacterial activity as the relative inactivation (%): undialyzed protein 100 μg/ml; for Reduction [%]: room temperature (Table 7); for antibacterial effect in words (reduction of cell numbers compared to the negative control): 100 μg/ml protein, room temperature; for antibacterial activity as the relative inactivation (%): exponentially growing cells, room temperature (Table 6)
# [2] = tested on: biofilm of the Staphylococcus aureus strain KS13; assay: Biofilm reduction, crystal violet assay; settings: 18 μg/well, 12 h; compared to the enzyme Lysostaphin
# P. aeruginosa PAO1p = type: cell-based, Pseudomonas aeruginosa; settings: 1.315 μM endolysin + 0.5 mM EDTA
Molecule,Reduction [%] [1] [%],antibacterial effect in words (reduction of cell numbers compared to the negative control) [1],antibacterial activity as the relative inactivation (%) [1] [%],further results
"KRK_6_pET32b: fusion protein SEQ ID NO: 44: endolysin SEQ ID NO: 1 with peptide KRKKRK (SEQ ID NO: 10) (protein, KRK_6_pET32b) AMGSKRKKRKKVLRKGDRGDEVCQLQTLLNLCGYDVGKPDGIFGNNTFNQVVKFQKDNCLDSDGIVGKNTWAELFSKYSPPIPYKTIPMPTANKSRAAATPVMNAVENATGVRSQLLLTFASIESAFDYEIKAKTSSATGWFQFLTGTWKTMIENYGMKYGVLTDPTGALRKDPRISALMGAELIKENMNILRPVLKREPTDTDLYLAHFFGPGAARRFLTTGQNELAATHFPKEAQANPSIFYNKDGSPKTIQEVYNLMDGKVAAHRK",99.9,–,–,–
"POLY-gp188: fusion protein SEQ ID NO: 39: endolysin ELgp188 (SEQ ID NO: 2) with peptide SEQ ID NO: 11 (protein, POLY-gp188) MGSKRKKRKKRKNFRTKNGYRDLQALVKELGLYTGQIDGVWGKGTSSSTETLLRGYAEVVGKNTGGIGLPTTSDASGYNVITALQRNLAFLGLYSLTVDGIWGNGTLSGLDKAFEVYKERYRTPTYDIAWSGKVSPAFTAKVKDWCGVHVPNHRAPHWLMACMAFETGQTFSPSIKNAAGSEAYGLIQFMSPAANDLNVPLSVIRSMDQLTQLDLVFKYFEMWMKRGKRYTQLEDFYLTIFHPASVGKKADEVLFLQGSKAYLQNKGFDVDKDGKITLGEISSTLYTTYYKGLLPENRHVISY",–,significant reduction,98.0±0.2,–
"ELgp188: unmodified modular endolysin of Pseudomonas aeruginosa phage EL, SEQ ID NO: 2 (protein, ELgp188) MNFRTKNGYRDLQALVKELGLYTGQIDGVWGKGTSSSTETLLRGYAEVVGKNTGGIGLPTTSDASGYNVITALQRNLAFLGLYSLTVDGIWGNGTLSGLDKAFEVYKERYRTPTYDIAWSGKVSPAFTAKVKDWCGVHVPNHRAPHWLMACMAFETGQTFSPSIKNAAGSEAYGLIQFMSPAANDLNVPLSVIRSMDQLTQLDLVFKYFEMWMKRGKRYTQLEDFYLTIFHPASVGKKADEVLFLQGSKAYLQNKGFDVDKDGKITLGEISSTLYTTYYKGLLPENRHVISY",–,do not reduce cell numbers significantly,10 ± 13,–
"PK-Lysostaphin: fusion protein SEQ ID NO: 142: bacteriocin Lysostaphin (SEQ ID NO: 87) with peptide SEQ ID NO: 11 (protein, PK-Lysostaphin) AMGKRKKRKKRKGSAHEHSAQWLNNYKKGYGYGPYPLGINGGMHYGVDFFMNIGTPVKAISSGKIVEAGWSNYGGGNQIGLIENDGVHRQWYMHLSKYNVKVGDYVKAGQIIGWSGSTGYSTAPHLHFQRMVNSFSNSTAQDPMPFLKSAGYGKAGGTVTPTPNTGWKTNKYGTLYKSESASFTPNTDIITRTTGPFRSMPQSGVLKAGQTIHYDEVMKQDGHVWVGYTGNSGQRIYLPVRTWNKSTNTLGVLWGTIKLVPRGS",–,–,–,"reduction of biofilm (crystal violet, absorption 590 nm) [2]: massive reduction"
"PKPSP3gp10: fusion protein SEQ ID NO: 53: endolysin PSP3gp10 (SEQ ID NO: 8) with peptide SEQ ID NO: 11 (protein, PKPSP3gp10) MGSKRKKRKKRKPVINTHQNIAAFLDMLAYSEGTANHPLTKNRGYDVIVTGFDGSPEIFTDYSDHPFAHGRPPKVFNRRGEKSTASGRYQQLYIFWPHYKKQLALPDFSPLSQDKLAIQLIRERGAIDDIRAGRIERAVSRCRNIWASLPGAGYGQREHSLEKLVTVWRTAGGVMA",–,–,–,interaction of EDTA with the endolysin (P. aeruginosa PAO1p): synergistically
"R9_pET32b: fusion protein SEQ ID NO: 47: endolysin SEQ ID NO: 1 with peptide RRRRRRRRR (SEQ ID NO: 12) (protein, R9_pET32b) AMGSRRRRRRRRRKVLRKGDRGDEVCQLQTLLNLCGYDVGKPDGIFGNNTFNQVVKFQKDNCLDSDGIVGKNTWAELFSKYSPPIPYKTIPMPTANKSRAAATPVMNAVENATGVRSQLLLTFASIESAFDYEIKAKTSSATGWFQFLTGTWKTMIENYGMKYGVLTDPTGALRKDPRISALMGAELIKENMNILRPVLKREPTDTDLYLAHFFGPGAARRFLTTGQNELAATHFPKEAQANPSIFYNKDGSPKTIQEVYNLMDGKVAAHRK",99,–,–,–
"POLY-gp144: fusion protein SEQ ID NO: 35: endolysin phiKZgp144 (SEQ ID NO: 1) with N-terminal peptide KRKKRKKRK (SEQ ID NO: 11) (protein, POLY-gp144) MGSKRKKRKKRKKVLRKGDRGDEVCQLQTLLNLCGYDVGKPDGIFGNNTFNQVVKFQKDNCLDSDGIVGKNTWAELFSKYSPPIPYKTIPMPTANKSRAAATPVMNAVENATGVRSQLLLTFASIESAFDYEIKAKTSSATGWFQFLTGTWKTMIENYGMKYGVLTDPTGALRKDPRISALMGAELIKENMNILRPVLKREPTDTDLYLAHFFGPGAARRFLTTGQNELAATHFPKEAQANPSIFYNKDGSPKTIQEVYNLMDGKVAAHRK",–,significant reduction,99.85±0.09,–
"K8_pET32b: fusion protein SEQ ID NO: 48: endolysin SEQ ID NO: 1 with peptide KKKKKKKK (SEQ ID NO: 13) (protein, K8_pET32b) AMGSKKKKKKKKKVLRKGDRGDEVCQLQTLLNLCGYDVGKPDGIFGNNTFNQVVKFQKDNCLDSDGIVGKNTWAELFSKYSPPIPYKTIPMPTANKSRAAATPVMNAVENATGVRSQLLLTFASIESAFDYEIKAKTSSATGWFQFLTGTWKTMIENYGMKYGVLTDPTGALRKDPRISALMGAELIKENMNILRPVLKREPTDTDLYLAHFFGPGAARRFLTTGQNELAATHFPKEAQANPSIFYNKDGSPKTIQEVYNLMDGKVAAHRK",99,–,–,–
"pK2KZ144_pET32b_mod3: fusion protein SEQ ID NO: 49: endolysin SEQ ID NO: 1 with 38-residue linker-containing peptide SEQ ID NO: 28 (protein, pK2KZ144_pET32b_mod3) AMGSKRKKRKKRKRGSGSGKRKKRKKRKRGSGSGKRKKRKKRKKVLRKGDRGDEVCQLQTLLNLCGYDVGKPDGIFGNNTFNQVVKFQKDNCLDSDGIVGKNTWAELFSKYSPPIPYKTIPMPTANKSRAAATPVMNAVENATGVRSQLLLTFASIESAFDYEIKAKTSSATGWFQFLTGTWKTMIENYGMKYGVLTDPTGALRKDPRISALMGAELIKENMNILRPVLKREPTDTDLYLAHFFGPGAARRFLTTGQNELAATHFPKEAQANPSIFYNKDGSPKTIQEVYNLMDGKVAAHRK",99.9,–,–,–
"(POLY)^2-gp144: fusion protein SEQ ID NO: 36: endolysin SEQ ID NO: 1 with peptide SEQ ID NO: 21 (protein, (POLY)2-gp144) MGSKRKKRKKRKRSKRKKRKKRKKVLRKGDRGDEVCQLQTLLNLCGYDVGKPDGIFGNNTFNQVVKFQKDNCLDSDGIVGKNTWAELFSKYSPPIPYKTIPMPTANKSRAAATPVMNAVENATGVRSQLLLTFASIESAFDYEIKAKTSSATGWFQFLTGTWKTMIENYGMKYGVLTDPTGALRKDPRISALMGAELIKENMNILRPVLKREPTDTDLYLAHFFGPGAARRFLTTGQNELAATHFPKEAQANPSIFYNKDGSPKTIQEVYNLMDGKVAAHRK",–,significant reduction,99.98±0.02,–
"PSP3gp10: unmodified globular endolysin of Salmonella typhimurium phage PSP3, SEQ ID NO: 8 (protein, PSP3gp10) MPVINTHQNIAAFLDMLAYSEGTANHPLTKNRGYDVIVTGFDGSPEIFTDYSDHPFAHGRPPKVFNRRGEKSTASGRYQQLYIFWPHYKKQLALPDFSPLSQDKLAIQLIRERGAIDDIRAGRIERAVSRCRNIWASLPGAGYGQREHSLEKLVTVWRTAGGVMA",–,–,–,interaction of EDTA with the endolysin (P. aeruginosa PAO1p): synergistically
"(POLY)^2-gp188: fusion protein SEQ ID NO: 40: endolysin SEQ ID NO: 2 with peptide SEQ ID NO: 21 (protein, (POLY)2-gp188) MGSKRKKRKKRKRSKRKKRKKRKNFRTKNGYRDLQALVKELGLYTGQIDGVWGKGTSSSTETLLRGYAEVVGKNTGGIGLPTTSDASGYNVITALQRNLAFLGLYSLTVDGIWGNGTLSGLDKAFEVYKERYRTPTYDIAWSGKVSPAFTAKVKDWCGVHVPNHRAPHWLMACMAFETGQTFSPSIKNAAGSEAYGLIQFMSPAANDLNVPLSVIRSMDQLTQLDLVFKYFEMWMKRGKRYTQLEDFYLTIFHPASVGKKADEVLFLQGSKAYLQNKGFDVDKDGKITLGEISSTLYTTYYKGLLPENRHVISY",–,significant reduction,98.9 ± 0.4,–

# Source: US10485854B2, “Method of reducing biofilms” (Lysando AG, priority 2010, dated 2019)
